Assay results reported in patent publication US20140087995A1 (published 2014).
Numbered stars: 1 amine (or outer) side, 2 acyl side, 3 side chain; on linkers, the order of the positions; unused ones are H or OH. Bridge positions count the residues as written; N and C are the ends. Side chains are listed from the residue outwards. Ends that are not written are not given here. * marks the point of attachment. C20 diacid = O=C(O)CCCCCCCCCCCCCCCCCCC(=O)*; γGlu = O=C(O)[C@H](CCC(=O)[*:2])N[*:1]

T1: human calcitonin receptor (human, UniProt P30988 25-474)
T1 sequence (looked up): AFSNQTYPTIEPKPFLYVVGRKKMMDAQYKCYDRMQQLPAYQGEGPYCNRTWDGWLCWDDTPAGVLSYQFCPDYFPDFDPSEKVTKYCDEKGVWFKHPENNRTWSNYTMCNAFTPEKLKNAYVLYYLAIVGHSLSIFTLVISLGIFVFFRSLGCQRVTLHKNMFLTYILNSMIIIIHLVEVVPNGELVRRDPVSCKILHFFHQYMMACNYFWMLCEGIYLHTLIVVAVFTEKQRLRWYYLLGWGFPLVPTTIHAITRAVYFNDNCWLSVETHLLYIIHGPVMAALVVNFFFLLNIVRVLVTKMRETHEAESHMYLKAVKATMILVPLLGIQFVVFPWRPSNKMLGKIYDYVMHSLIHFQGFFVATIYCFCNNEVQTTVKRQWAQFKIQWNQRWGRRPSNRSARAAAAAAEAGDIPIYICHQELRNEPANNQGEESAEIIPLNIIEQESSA

T2: human amylin receptor (amylin 3(a) receptor: human calcitonin receptor co-expressed with RAMP-3) (human, UniProt P30988 25-474; O60896 24-148, limits assumed)
T2 construct: whole, on cells; Assayed as cell membranes of BHK570 Amylin 3(a)/CRE-luc cells (Assay V); also called hAmylin-R; hAmylinR
T2 sequence (looked up) 1: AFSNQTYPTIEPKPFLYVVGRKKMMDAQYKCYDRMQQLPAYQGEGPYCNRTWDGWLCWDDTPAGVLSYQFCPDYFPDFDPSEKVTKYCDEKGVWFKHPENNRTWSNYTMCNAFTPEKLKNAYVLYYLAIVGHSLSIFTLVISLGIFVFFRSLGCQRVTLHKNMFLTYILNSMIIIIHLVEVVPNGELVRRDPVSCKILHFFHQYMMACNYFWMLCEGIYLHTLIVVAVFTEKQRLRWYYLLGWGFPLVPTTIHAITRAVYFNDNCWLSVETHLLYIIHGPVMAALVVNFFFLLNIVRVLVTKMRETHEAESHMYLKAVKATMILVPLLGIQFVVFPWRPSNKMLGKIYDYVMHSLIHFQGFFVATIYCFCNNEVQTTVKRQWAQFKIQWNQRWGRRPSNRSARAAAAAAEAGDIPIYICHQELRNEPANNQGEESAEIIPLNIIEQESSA
T2 sequence (looked up) 2: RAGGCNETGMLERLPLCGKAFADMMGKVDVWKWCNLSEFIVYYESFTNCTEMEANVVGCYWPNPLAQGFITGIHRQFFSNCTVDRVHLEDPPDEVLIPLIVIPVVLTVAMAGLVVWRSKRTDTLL

T3: human calcitonin receptor (human, UniProt P30988 25-474)
T3 construct: whole, on cells; Assayed as cell membranes of BHK tk'ts 13 cells stably transfected with the human calcitonin receptor (Assay VII); also called hCTR; hCT
T3 sequence (looked up): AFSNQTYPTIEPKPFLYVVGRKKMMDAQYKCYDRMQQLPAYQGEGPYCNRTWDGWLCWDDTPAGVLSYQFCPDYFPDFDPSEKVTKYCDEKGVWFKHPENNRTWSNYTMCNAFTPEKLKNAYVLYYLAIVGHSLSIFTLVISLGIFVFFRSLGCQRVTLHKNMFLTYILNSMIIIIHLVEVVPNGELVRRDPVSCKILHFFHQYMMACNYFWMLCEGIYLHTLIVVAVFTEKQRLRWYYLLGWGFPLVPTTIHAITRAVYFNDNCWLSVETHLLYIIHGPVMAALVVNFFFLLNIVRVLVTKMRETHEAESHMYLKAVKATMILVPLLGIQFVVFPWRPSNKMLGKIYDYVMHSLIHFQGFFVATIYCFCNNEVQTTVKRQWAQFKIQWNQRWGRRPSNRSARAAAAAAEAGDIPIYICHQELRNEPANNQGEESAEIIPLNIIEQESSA


Legend:
[1] = molecular target: T1, human calcitonin receptor; test: cell-based or functional assay
[2] = molecular target: T2, human amylin receptor (amylin 3(a) …); test: SPA competition vs 125I-rat amylin, membranes of BHK cells with human amylin 3(a) receptor (Assay V)
Description: The binding assay was performed using scintillation proximity assay (SPA) beads (RPNQ0001) from PerkinElmer and cell membranes from the Amylin 3(a)/CRE-luc cells (as described in Assay (II)) were used. Membranes were prepared in the following way; the cells were rinsed with PBS and incubated with Versene for approximately 5 min before harvesting. The cells were flushed with PBS and the cell-suspension was centrifuged for 5 min at 1000 rpm. Cells were homogenized (ultrathurrax) in a buffer containing 20 mM Na-HEPES and 10 mM EDTA (pH 7.4) and centrifuged at 20.000 rpm for 15 min. The resulting pellet was resuspended, homogenized and centrifuged (20.000 rpm, 15 min) in a buffer containing 20 mM Na-HEPES and 0.1 mM EDTA (pH 7.4, buffer 2). The resulting pellet was resuspended in buffer 2 and protein concentration was measured (BCA protein Assay, Pierce). The homogenate was kept cold during the whole procedure. The membranes were kept at −80° C. until use. The assay was performed in a 384 well Optiplate (PerkinElmer) in a total volume of 40 ul. Membranes were mixed with SPA beads. Final concentration of membranes 35 ng/μL final and SPA beads was 0.05 mg/well. […] Samples were analyzed on TopCounter™ (Packard). The IC₅₀ was calculated using (one site binding competition analysis) GraphPad Prism5 as a measure of receptor affinity.

[3] = molecular target: T3, human calcitonin receptor; test: IC50 at hCTR divided by IC50 at hAmylin-R (SPA competition assays V and VII)
In short: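 Membranes (35 ng/μL final) + SPA beads, 50 mM Hepes pH 7.4 buffer with 1 mM CaCl2, 5 mM MgCl₂, 0.1% OA, 0.02% Tween20; 120 min, 25° C, shaking; centrifuged, counted; IC₅₀ by one-site binding competition.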

[4] = molecular target: T3, human calcitonin receptor; test: SPA competition vs 125I-calcitonin, membranes of BHK cells with human calcitonin receptor (Assay VII)
In short: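 BHK hCTR membranes 35 ng/μL + SPA beads 0.05 mg/well; buffer 50 mM Hepes pH 7.4, 1 mM CaCl2, 5 mM MgCl₂, 0.1% OA, 0.02% Tween20. 120 min, 25° C., shaking. Scintillation count; IC50 by one-site binding competition.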

hCTR funct. EC50 (CRE luciferase reporter, BHK cells) [1] | IC50 [2] | Ratio hCT/hAmylin binding [3] | IC50 [4] | Binder
2.35 nM |  |  |  | {C20 diacid-γGlu}-KCNTATCATQRLAEFLRHSSPNFGAIPSSTNVGHNTY-NH2 (disulfide 2-7; SMILES CC[C@H](C)[C@H](NC(=O)[C@H](C)NC(=O)CNC(=O)[C@H](Cc1ccccc1)NC(=O)[C@H](CC(N)=O)NC(=O)[C@@H]1CCCN1C(=O)[C@H](CO)NC(=O)[C@H](CO)NC(=O)[C@H](Cc1c[nH]cn1)NC(=O)[C@H](CCCNC(=N)N)NC(=O)[C@H](CC(C)C)NC(=O)[C@H](Cc1ccccc1)NC(=O)[C@H](CCC(=O)O)NC(=O)[C@H](C)NC(=O)[C@H](CC(C)C)NC(=O)[C@H](CCCNC(=N)N)NC(=O)[C@H](CCC(N)=O)NC(=O)[C@@H](NC(=O)[C@H](C)NC(=O)[C@@H]1CSSC[C@H](NC(=O)[C@H](CCCCN)NC(=O)CC[C@H](NC(=O)CCCCCCCCCCCCCCCCCCC(=O)O)C(=O)O)C(=O)N[C@@H](CC(N)=O)C(=O)N[C@@H]([C@@H](C)O)C(=O)N[C@@H](C)C(=O)N[C@@H]([C@@H](C)O)C(=O)N1)[C@@H](C)O)C(=O)N1CCC[C@H]1C(=O)N[C@@H](CO)C(=O)N[C@@H](CO)C(=O)N[C@H](C(=O)N[C@@H](CC(N)=O)C(=O)N[C@H](C(=O)NCC(=O)N[C@@H](Cc1c[nH]cn1)C(=O)N[C@@H](CC(N)=O)C(=O)N[C@H](C(=O)N[C@@H](Cc1ccc(O)cc1)C(N)=O)[C@@H](C)O)C(C)C)[C@@H](C)O, Synthetic acylated analogue of human amylin; also called compound 17)
2.68 nM |  |  |  | KCNTATCATQRLANFLRHSSPNFGAIPSSTNVGHNTY (C20 diacid-gGlu on the alpha amino group of N-terminal Lys1; disulfide bridge Cys2-Cys7 and C-terminal amide as in human amylin, Synthetic acylated analogue of human amylin; also called compound 40) [N^α1-[(4S)-4-carboxy-4-(19-carboxynonadecanoylamino)butanoyl]-[Arg17,Pro21,Pro27,His34]-h-amylin]
 | 0.09 nM | 51.6 | 4.63 nM | K([γGlu-C20 diacid])CNTATCATQRLAHFLRHSSPNFGAIPSSTNVGPNTY-NH2 (disulfide 2-7; N-terminus assumed; SMILES CC[C@H](C)[C@H](NC(=O)[C@H](C)NC(=O)CNC(=O)[C@H](Cc1ccccc1)NC(=O)[C@H](CC(N)=O)NC(=O)[C@@H]1CCCN1C(=O)[C@H](CO)NC(=O)[C@H](CO)NC(=O)[C@H](Cc1c[nH]cn1)NC(=O)[C@H](CCCNC(=N)N)NC(=O)[C@H](CC(C)C)NC(=O)[C@H](Cc1ccccc1)NC(=O)[C@H](Cc1c[nH]cn1)NC(=O)[C@H](C)NC(=O)[C@H](CC(C)C)NC(=O)[C@H](CCCNC(=N)N)NC(=O)[C@H](CCC(N)=O)NC(=O)[C@@H](NC(=O)[C@H](C)NC(=O)[C@@H]1CSSC[C@H](NC(=O)[C@@H](N)CCCCNC(=O)CC[C@H](NC(=O)CCCCCCCCCCCCCCCCCCC(=O)O)C(=O)O)C(=O)N[C@@H](CC(N)=O)C(=O)N[C@@H]([C@@H](C)O)C(=O)N[C@@H](C)C(=O)N[C@@H]([C@@H](C)O)C(=O)N1)[C@@H](C)O)C(=O)N1CCC[C@H]1C(=O)N[C@@H](CO)C(=O)N[C@@H](CO)C(=O)N[C@H](C(=O)N[C@@H](CC(N)=O)C(=O)N[C@H](C(=O)NCC(=O)N1CCC[C@H]1C(=O)N[C@@H](CC(N)=O)C(=O)N[C@H](C(=O)N[C@@H](Cc1ccc(O)cc1)C(N)=O)[C@@H](C)O)C(C)C)[C@@H](C)O, also called compound 67)
